Assay results from article PMC12441119 (Cell Discovery, 2025).

What was measured:
Conditions in all cases: both partners purified
[1] = biological target: T1, STK4 (residues 1–487) K59R (human, UniProt Q13043 1-487, K59R); test: ITC; MicroCal PEAQ-ITC, 25 °C; 20 mM Tris-HCl pH 7.5, 100 mM NaCl, 1 mM DTT; ~50 μM in the cell, ~500 μM in the syringe; one-site binding model
T1 construct: The tag could be cut by HRV 3C protease 'if desired'; also called kinase-dead full-length STK4; MST1; source: E. coli BL21 (DE3), purified (Ni-NTA, SEC)
T1 sequence (looked up): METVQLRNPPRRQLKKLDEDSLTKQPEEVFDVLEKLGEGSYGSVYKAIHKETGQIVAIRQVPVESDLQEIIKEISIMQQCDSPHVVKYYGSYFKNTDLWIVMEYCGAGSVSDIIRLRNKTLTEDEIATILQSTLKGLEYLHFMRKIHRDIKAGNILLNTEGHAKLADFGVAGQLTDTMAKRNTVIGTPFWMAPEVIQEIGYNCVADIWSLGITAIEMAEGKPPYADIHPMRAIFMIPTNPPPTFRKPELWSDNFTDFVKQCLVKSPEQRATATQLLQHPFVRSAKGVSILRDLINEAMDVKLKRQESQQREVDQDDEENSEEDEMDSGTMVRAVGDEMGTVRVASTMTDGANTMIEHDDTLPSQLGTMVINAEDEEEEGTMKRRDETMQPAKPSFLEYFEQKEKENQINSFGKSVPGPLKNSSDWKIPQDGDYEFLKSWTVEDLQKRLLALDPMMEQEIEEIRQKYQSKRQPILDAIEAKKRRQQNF

[2] = biological target: T2, STK4 (residues 11–326) K59R (human, UniProt Q13043 11-326, K59R); test: as above
T2 construct: Monomer-dimer equilibrium in solution; dimer in the crystal; also called STK4 KD; source: E. coli BL21 (DE3), purified (Ni-NTA, SEC)
T2 sequence (looked up): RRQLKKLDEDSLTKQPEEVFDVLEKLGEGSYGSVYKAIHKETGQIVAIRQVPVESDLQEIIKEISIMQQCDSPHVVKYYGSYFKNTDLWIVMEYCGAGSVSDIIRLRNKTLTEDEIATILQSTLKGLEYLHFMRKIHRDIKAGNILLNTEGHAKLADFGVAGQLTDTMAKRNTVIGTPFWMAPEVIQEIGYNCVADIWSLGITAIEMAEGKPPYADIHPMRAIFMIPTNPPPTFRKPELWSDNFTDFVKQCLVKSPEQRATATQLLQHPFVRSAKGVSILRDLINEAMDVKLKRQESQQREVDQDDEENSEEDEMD

[3] = biological target: T3, STK4 (residues 1–326) K59R (human, UniProt Q13043 1-326, K59R); test: SEC; each protein alone and the mixture at matched concentrations on Superdex 200 Increase 10/300 GL or Superdex 75 Increase 10/300 GL; a forward shift or increase of the peak read qualitatively; fractions on SDS-PAGE (Fig. 1c: 20 μM HOIP RING2-LDD, 30 μM STK4 KD, Superdex 75 Increase)
T3 construct: also called KD; source: E. coli BL21 (DE3), purified (Ni-NTA, SEC)
T3 sequence (looked up): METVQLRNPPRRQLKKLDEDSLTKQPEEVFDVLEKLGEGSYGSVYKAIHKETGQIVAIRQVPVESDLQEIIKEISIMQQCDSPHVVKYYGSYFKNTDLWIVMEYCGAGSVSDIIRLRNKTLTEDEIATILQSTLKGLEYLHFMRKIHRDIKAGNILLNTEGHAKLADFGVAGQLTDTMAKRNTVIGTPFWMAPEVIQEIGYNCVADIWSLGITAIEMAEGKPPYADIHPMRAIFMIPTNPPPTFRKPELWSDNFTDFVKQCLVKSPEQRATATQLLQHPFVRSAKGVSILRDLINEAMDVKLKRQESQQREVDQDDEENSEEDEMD

Measured: binding result

B1: HOIP (residues 854–1072) (domain or fragment, UniProt Q96EP0 854-1072, looked up)
chain: EYQAQGLAMYLQENGIDCPKCKFSYALARGGCMHFHCTQCRHQFCSGCYNAFYAKNKCPEPNCRVKKSLHGHHPRDCLFYLRDWTALRLQKLLQDNNVMFNTEPPAGARAVPGGGCRVIEQKEVPNGLRDEACGKETPAGYAGLCQAHYKEYLVSLINAHSLDPATLYEVEELETATERYLHVRPQPLAGEDPPAYQARLLQKLTEEVPLGQSIPRRRK
notes: also called HOIP RING2-LDD; source: E. coli BL21 (DE3), purified (glutathione resin, SEC)
binds: [1] | [2] | [3]
